Measured values from the PETadex activity labels.
Positions count from the first letter of the chain named.

B1: unnamed (protein)
chain: MKEGKHFVLVHGACHGGWSWYKLKPLLEAAGHKVTALDLAASGTDLRKIEELRTLYDYTLPLMELMESLSADEKVILVGHSLGGMNLGLAMEKYPQKIYAAVFLAAFMPDSVHNSSFVLEQYNERTPAENWLDTQFLPYGSPEEPLTSMFFGPKFLAHKLYQLCSPEDLALASSLVRPSSLFMEDLSKAKYFTDERFGSVKRVYIVCTEDKGIPEEFQRWQIDNIGVTEAIEIKGADHMAMLCEPQKLCASLLEIAHKYN
B2: unnamed (protein)
chain: B1 chain with G12T, M239K
B3: unnamed (protein)
chain: B1 chain with G12T
B4: unnamed (protein)
chain: MNFPRASRLMQAAVLGGLMAVSAAATAQTNPYARGPNPTAASLEASAGPFTVRSFTVSRPSGYGAGTVYYPTNAGGTVGAIAIVPGYTARQSSIKWWGPRLASHGFVVITIDTNSTLDQPSSRSSQQMAALRQVASLNGTSSSPIYGKVDTARMGVMGWSMGGGGSLISAANNPSLKAAAPQAPWDSSTNFSSVTVPTLIFACENDSIAPVNSSALPIYDSMSRNAKQFLEINGGSHSCANSGNSNQALIGKKGVAWMKRFMDNDTRYSTFACENPNSTRVSDFRTANCS
B5: unnamed (protein)
chain: MAKEILVAYGVDIDAVAGWLGSYGGEDSPDDISRGLFAGEVGIPRLLKLFKKYHLPATWFSPGHSIETFSEQMKMIVDAGHEVGAHGYSHENPIAMTAKQEEDVLLKSVELIKDLTGKAPTGYVAPWWEFSNITNELLLKHGFKYDHSLMHNDFTPYYVRVGDSWSKIDYSLEAKDWMKPLIRGVETDLVEIPANWYLDDLPPMMFIKKSPNSFGFVSPHDIGQMWIDQFDWVYREMDYAVFSMTIHPDVSARPQVLLMHEKIIEHINKHEGVRWVTFNEIADDFLKRNPRKK
B6: unnamed (protein)
chain: MSKISEAVKRARAAFSSGRTRPLQFRIQQLEALQRLIQEQEQELVGALAADLHKNEWNAYYEEVVYVLEEIEYMIQKLPEWAADEPVEKTPQTQQDELYIHSEPLGVVLVIGTWNYPFNLTIQPMVGAIAAGNSVVLKPSELSENMASLLATIIPQYLDKDLYPVINGGVPETTELLKERFDHILYTGSTGVGKIIMTAAAKHLTPVTLELGGKSPCYVDKNCDLDVACRRIAWGKFMNSGQTCVAPDYILCDPSIQNQIVEKLKKSLKEFYGEDAKKSRDYGRIISARHFQRVMGLIEGQKVAYGGTGDAATRYIAPTILTDVDPQSPVMQEEIFGPVLPIVCVRSLEEAIQFINQREKPLALYMFSSNDKVIKKMIAETSSGGVAANDVIVHITLHSLPFGGVGNSGMGSYHGKKSFETFSHRRSCLVRPLMNDEGLKVRYPPSPAKMTQH
B7: unnamed (protein)
chain: MFNQIGKKSALSLMAAGSLMFSATALAIGGGGSGGGNNGGGGGCEADCGYERGPDPSVSLLEASTGPFSVRTSNVSSSVRGFGGGTIHYPTNTTGTMAAIVVIPGFVSPESSIAWWGPKLASHGFVVMTIGTNSGFDQPASRASQLNNALDYLIEQNGSSRSPINGMIDTDRLGVMGWSMGGGGTLRVATEGRVSAAIPLAPWDSSSSQFRSIDTPTLIFACENDSTAPVRSHADPFYDAIPDSTAKAFVELDGGGHTCANGSSGFGGSYNDVLSRLGVSWMKLHLDKDQRYNQFVCGPNHESDRSISEYRGTCPY

substrate: p-NP-C2; conditions: pH 7.2; 25 °C

Row | Protein | Km | kcat | kcat/Km
1 | B1 | 1.4 mM | 2 s⁻¹ | 1430 s⁻¹ M⁻¹
2 | B2 | 7.6 mM | 0.025 s⁻¹ | 3.29 s⁻¹ M⁻¹
3 | B3 | 8.7 mM | 0.0283 s⁻¹ | 3.26 s⁻¹ M⁻¹

same assay, conditions: pH 7; 30 °C; part of the chain shown

Row | Protein | Km | kcat | kcat/Km
4 | B4 | 4.6 mM | 27 s⁻¹ | 5870 s⁻¹ M⁻¹

same assay, conditions: pH 6; 30 °C

Row | Protein | Km | kcat | kcat/Km
5 | B5 | 0.18 mM | 20.2 s⁻¹ | 112000 s⁻¹ M⁻¹

same assay, conditions: pH 7.4; 25 °C

Row | Protein | Km | kcat | kcat/Km
6 | B6 | 0.2 mM | 1.43 s⁻¹ | 7170 s⁻¹ M⁻¹

same assay, conditions: 20 °C

Row | Protein | Km | kcat | kcat/Km
7 | B7 | 2.1 mM | 4.74 s⁻¹ | 2260 s⁻¹ M⁻¹
